The source of these data is article PMC3653069.

This data set has as its target MutSα (MSH2 subunit);MutSα (MSH6 subunit) (human;human, UniProt P43246;P52701 1-934;1-1360, |). Put plainly: EMSA.

B1: rC/G (dsDNA)
DNA 1: CCAGACGTCTGTCGACGTTGGGAAGCTTGAG
DNA 2: CTCAAGCTTCCCAACGTCGACAGACGTCTGG
modifications: single ribocytidine at position 13 of strand 1 (rC opposite G)
Regarding B1, the binding result is “no binding”.
